Substrate in the data set: NC(=O)C1=CN([C@@H]2O[C@H](COP(=O)(O)OP(=O)(O)OC[C@H]3O[C@@H](n4cnc5c(N)ncnc54)[C@H](O)[C@@H]3O)[C@@H](O)[C@H]2O)C=CC1
Kind of data set: purified protein. It is filed as biochemical, Methylorubrum extorquens. Particulars: 100 mM sodium bicarbonate, N2-purged 200 mM Kpi pH 6.5 (no O2 or CO), NADH varied 6.25-100 µM, table header prints NAD+, free enzyme.

B1: MeFDH1 (Methylorubrum extorquens AM1) (protein)
chain: MSEASGTVRSFAHPGRGRNVARAVPKGRQVDPHAKVEIEELLGTRPRQRDLLIEHLHLIQDTYGQISADHLAALADEMSLAFAEVFETATFYAHFDVVKEGEADIPRLTIRVCDSITCAMFGADELLETLQRELASDAVRVVRAPCVGLCDHAPAVEVGHNFLHRADLASVRAAVEAEDTHAHIPTYVDYDAYRAGGGYATLERLRSGELPVDDVLKVLDDGGLRGLGGAGFPTGRKWRSVRGEPGPRLMAVNGDEGEPGTFKDQLYLNTDPHRFLEGMLIGAHVVEAADVYIYLRDEYPISREILAREIAKLPEGGTRIHLRRGAGAYICGEESSLIESLEGKRGLPRHKPPFPFQVGLFNRPTLINNIETLFWVRDLIERGAEWWKSHGRNGRVGLRSYSVSGRVKEPGVKLAPAGLTIQELIDEYCGGISDGHSFAAYLPGGASGGILPASMNDIPLDFGTLEKYGCFIGSAAVVILSDQDDVRGAALNLMKFFEDESCGQCTPCRSGTQKARMLMENGVWDTDLLGELAQCMRDASICGLGQAASNPVSTVIKYFPDLFPEPRAVAAE
notes: with Tungsten-containing formate dehydrogenase alpha subunit
Turning to B1, the Km (commonly the substrate concentration at which the rate is half of its maximum) amounted to 26.38 ± 1.16 µM; the kcat (in general, the number of substrate molecules converted per active site and unit of time at saturation) stood at 2.27 ± 0.064 s⁻¹; the kcat/Km (as a rule, the turnover number divided by the Michaelis constant) stood at 86200 ± 3000 M⁻¹ s⁻¹.
